Assay: soluble on expression in E. coli; label from the status in PepcDB or PDB records

Sequence | soluble on expression in E. coli
MSDKLFSIVTISFNQAQFLREAVESVLAQKGGDIEYIVVDPGSTDGSREILAEYRSAIDHLILEADHGPGDGLNKGFARANGRYGYFLNSDDFLLPGAIDIMRTLWQRHKNTDVLLCGAWMVDENRRPQRELRPSPVTLEKLLDGEAKIVQQGMSFRMDLFRKVGGFNVGNRTCWDYELLCDFLAAGAAVTQSEARLAAFRIHSASISGGIGGELATKRYLADLDSVYERLTGQKKKPEQRRRAVRLSKRLGSPSHVLLRMRELLAPWTLELRWQADHERKSRRLEHHHHHH | not soluble
MGSDKIHHHHHHMSTSAPINRRLTKKIYVGDVAIGGDAPISVQSMTNTDTCDVAATVAQIERCVEAGADLMRVSTPTMDTVKAFGEIRKLVSVPLIADVHFDHKIALAVAAAGADCLRINPGNIGSDAKVREVVACAKHYNIPIRIGVNAGSLEKDIQRKYKEPNGAAMLESAMRHIDILERLNFDQYKVSVKASNVFLTMDAYRLISAQIDNPLHLGVTEAGVYRTGSVKSAIALGGLLLDGIGDTIRISLAAEPEEEIKIGFDILKSLNIRSNGVNFIACPSCSRQEFDVIRVMTALESRLEDIREPMNLSVIGCKVNGPGEAKEADIGIVGAAPKSLVYRMGEKSHLIDTDNLVDEIEGMVRAHAEELAKKRENEIIRVR | not soluble
MAHHHHHHMWRRGVAAVPLPLWQGKLLQLVHHRALSTDTTGDEATAWSRAMEAKYGTGTYKLFRPLYKDLSDEMRLEAYTKPPAPMQGWSVHHDEAVNLAIFSHKGDSRSRTARVVAYSPITVENPESLNPLLYFMDWYPINVLMERNGVVVHFSIASTEGGMHMRNVRVYKAQDELSPNDPEKQDLPNRDSECERLMSTTDDAAWVRHNLYYDGPCLWHLELDMLNELYDVMQDHGVTLDWVRWVAEWVHYLEHVSYVRWALGVLQELIPVDERGPEDDFLTFEEKEALATPPEEWLEAHYI | not soluble
MGHHHHHHSHMVSPSKAVIVPGKIGGDETTHGWYGWVKKELEKIPGFQCLAKNMPDPITARESIWLPFMETELHCDEKTIIIGHSSGAIAAMRYAETHRVYALILVSAYTSEFGDENERASGYFSRPWQWEKIKANCPHIVQFGSTDDPFLPWKEQQEVADSWTPNCTNSLTVVTFRTQSSMN | not soluble
MSLASFPHRNLTWNDINFVHTTDTHGWYSGHINQPLYHANWGDFISFTTHMRRIAHSRNQDLLLIDSGDRHDGNGLSDITSPNGLKSTPIFIKQDYDLLTIGNHELYLWENSKQEYETVVNHFQDKYVCSNVDIRLDNGLFVPLGLKYKYFTTPIRGIRVMAFGFLFDFKRFNSGTRVTPMAETIHEPWFQEALKHEVDLIIIVGHTPISHNWGEFYQVHQYLRQFFPDTIIQYFGGHSHIRDFTVFDSLSTGLQSGRYCETVGWTSVNLDKADLNLPVRQRFSRSYIDEGHHHHHH | not soluble
MEVVRIPEFKEKTAPGAYYQQPAIDGSRPGRFYANLFDIKATPKYGMRTLAYHEGIPGHHFQVAVAMELEGQPLIRKMAPFTAYIEGWALYSERVAWELGFQQDPFDNIGRLQAELFRAVRLVVDTGIHHSRWTREQAIDYMKKNTGMSDRDVTAEIERYIVMPGQATAYKVGMMKILELREKAKQALGDKFDLRDFHDVVLKNGAVPLDILEKLVDRYIADKRSQA | not soluble
MGSDKIHHHHHHMGLSTSTKTFAERLEESKKDQFAKAAVAKAQDAQWEKRESARDELGNWQEWRDIAESIRQHTLKYLPHYLTEFSDNVAARGGHVFFAADAKEANDYVKRIVLEKNAKKIVKSKSMVTTEVDIDPMLVSLSDDMDILETDLAEFILQVADWDEPSHIVFPALHKNRDQIREIFAKKLGYEGDNNPVNLARCARDTMRKLFLKSEVGITGCNFAIANTGDINLSTNEGNADLTISIPKTQIVLMGMERIVPSIKEAEILDNMLARSAVGQKLTTYVTFAGQQADDESDGPEDFHVVIVDNGRSNAIGTAFEAVLQCIRCGACLNVCPVYRQIGGHAYGSIYPGPIGSVLSPVLGGYEQYGDLPYASTLCGACTETCPVKIPLHELLIEHRKVMEDDLSMHHDGSFVNFEMNTIGKGTSSPALFGMAINMAHTGLNMLPKAKEVSVEGSLFNYGAVRKAPALAKGWTDVRDLPIAPPHKEQFRQWYKKHKAGK | not soluble
MGSDKIHHHHHHMDVSIDSGKKKIIPFIQSGDYFFRRGVIAFRKNHLSRAVKLLERAVKLTEQEPVFHIQLAAVLSELGHYERSNDILESVVQNLDPGHSECHFFMANNYAYLGLFEKAEHCAIAYLSDQPDGEFAKDAHDLLDLLRFEKEEEGDEWENELTPTDQFLLEHEKACQLLEEGHLQEAIVLLEKLMDEEPSYWTAYNQYAQALFRLGNVEKAFEVCEHILEEDQGNLFALCNMALFYKKQGQQQQAESLIQALSAVHPMDRAHRFKVAQVLCAVGAYEQAYDRLKELEWTSISSDPEWHFCIGVAAYHLGQEEIALRYWKKAATLGVQQAADYYAMSIVDILQKEDVTYEGWHVKQKSRQNS | not soluble
MSSRVPILKVDDYWVVAIEETLHDQSVIQFKEELLHNITGVAGKGLVIDISALEVVDSFVTRVLIEISRLAELLGLPFVLTGIKPAVAITLTEMGLDLRGMATALNLQKGLDKLKNLARMEQR | soluble
GPGSMDYPKKNQAAPAEGQTVRLTITSRNAKAVESVTSQLLTRARDEKVTIHGPVRLPTRTLKITTRKTPCGNGTNTWDTFELKIYKRIIDLHAPTEQVKKITSFTMESGVDVSITILDR | soluble
TRMAPVIMVPGSSASQNRFDSLITELGKETPKKHSVLKLTVQTDGTIKYSGSIAANDNEPFIVIGFANNRDGKANIDKQAVWLNTAFKALVKTYHFNHFYALGHSNGGLIWTLFLERYLKESPKVHIDRLMTIASPYNMESTSTTAKTSMFKELYRYRTGLPESLTVYSIAGTENYTSDGTVPYNSVNYGKYIFQDQVKHFTEITVTGANTAHSDLPQNKQIVSLIRQYLLAETMPDK | not soluble
MGSDKIHHHHHHMARLSEGWSKEPFFLFFHPPKSPTKKENIKMNYRETLQAVDTEKALSVIGINSTLQGAYVKFNCPECEQQALIKAYGEKKNLWYCPKCKKSGHIISLTMTKKNIQWEEAKDLLLKARNGVKKITEEFNLKYDLQYNDFIKDKGLSEDICKFLEIGTPKGKTMLSGCVAFLVRDEVGMRVAYFGIKMKDEKHVFHKSFNPEQYLYGFQNLDFAYDVYFTTDLFECIKHIENGFQCVCNFGLPYISNEQMELLEKAERVTFSIRDELVKPFALQLTQRQKFYRFIK | not soluble
MGSDKIHHHHHHMITKEDIVADVVTDYPKSADIFRNAGIDFCCGGQESIASAVNHKPNIDLNSLLNKLNHIDNTEGNSTINPKFLNVESLIQYIQSAYHETLKEEFKNLTPYMTKLAKVHGPSHPYLLKLQDLYREFRDSMLDHIRKEDEEDFPKLIQYSQGQDVQNIKIILEDLINDHEDTGQLLNVMNQLTSDYQTPEEACGTWKLVYQRLQNIERQTHQHVHLENHVLFKKVS | not soluble
SWSGLLPPGLNESDAESNSEDEATLENSGLNLQEDKEDESIRKTEIIDFSTDEPKTETESNVNAYEECPSGIPIDMWNKFQELHKKHSEQKSTTSRFRGKRRKRSRKDKLKNEKELHSEPSSNETQWKELTQYFGVNDRFDPPVKRKKVEKSGLEKRIDQAVEEWNIEKAEELSNQLATRELGVKIAKAVACHNFVKAKKEVENSQAARKKKKLAWGFEAKKRWETKSNMGYM | soluble
MAHHHHHHMTSVLAVVNARRVWRGASVLQPAVSSSYPPEVDALLVEGGRISFIGSTAEVQQRYGALVAAQPVDAAAAAPQPVEGGRPRTVSHRVIDCEHRHAVYPGFIDSHVHFLDGGRMLLAPQLGFATSRTQFTAIVRDFVEHRYNREEGGWVYGVGWSEAVLGCSPTREWLDEVSTKIHLVMYSKDIHSAVMNTAALRSCHIIPGAEDGEPLITSVEGGVIELNENGQPSGVLRDNAIQLAKRYAPAADTPANQRRALEAATEHLLSLGFTSVFSMMSTTYMDNVSEINFLAQMEREGAMRLRVRYGVPLSDVERLMDKFYRVMATDAAQSGRSDDFTLPYRFTMTPPAAGGGYLLLGAVKLFADGSLSSRTAAMNRPYGYNVTTEGDIDSDLDDAAISALLKERSGKQCQCGLLTMSRLELQCAIRVAHSHDLQCVVHAIGDRAVATVNRALCASADWLRERGAEAGVVAAVARFRADPRSRVEHCQHMSSMTKEVKRMAQYGIIASMQPCHLLFDGDYVDTLLGQRRKDTSYMWGTLLAAKIRVDLGSDWPVAPADVNDGLRGAVTRVPDVMTALAAEEAQYRSQQQAQPSADNTAACAATALRRYHDTWNPAECISMDAALRTYTYEGAHGMFMENYLGTLEVGKYADITVWTADWLDDAEMEQMAGVEGANARWWPRHREPHVAYTIVGGVVEYDRSH | not soluble
MGSDKIHHHHHHMRFWDIRRVENVSLNLQLENGKLEKPRYNKSTSKGFRVLKNGFWGIFEGNVADDEGLRQAEKNAFTQGDGDIEEIATKGRYRMRVKRDPQDMSIEEKVELLKDLEKIIRDVCVSTKLVYFENRRVLQYRDSCGSEVEYEVLRTGVSIMGVGKGRSLQFLSKRQMRVGGYEVLDGVDEKAYEIVEVLPKLVNALAPPSGEMSVVMDSSLAGVFVHEAFGHAVEADHVLQGATVLKGRLNEKVADESVTIIDDPTLPEFGFFPFDDEGVRAEKKVIVEDGVLKSFLHSRETAKKLGGVAGNARSQGVDVPIVRMSNTYIDTHHYSFDELLEECRDGVYLVGSRGGETNPATGYFHFNAQYGYLIKNGELAEMVRDVSLSGNTLEILRNVKIGREIEFDPGFCGKAGQLVPVSDGSPPVLCRATVGGA | not soluble
MESMLLPKYFDILIVDDIPEHIDVAVQVLRDSNFKIRVATDGNTALKLIYQQKPDLILLDIYMPEMDGFELCRLIKNTPDLKNIPVIFLTSFSDEESIRKGFESGGQDYVVKPFNASELLSRVKTHLMLKCQAESLKEANKELDSFCYTVAHDLKSPLLSLNKLVELLVSDHLNQLDSAGKELVYNIREKSSEIIHTVDRLLEFSKMCEMQVNFEIIDLNELFTEVCNELKSLEPQRDIRIHIQPLPKVYGDRLLMRLLISNILSNAFKYTRNRQTAIIEIQSSEDGNEYVFFVKDNGAGFDMKYSSRLFGVFQRLHSKDEFEGSGVGLAICQRILKRHNGRAWMTGEIDKGATFFFTLPKFE | soluble
MNIEEAKKLIDKQSIGKGGVGDIPVVKTHIVKVLLDQIDQPQPEVPRFVADWYEKHKDSLECDLYLYHMSIYDEEVEKDDFYYWMQTSKNPVYTLINMHQFGYTIQKEKLYTVEIPNPNERQLSFVLMRQLSGNVSIKVMHRDNLDLLKTDNDLQLTESEIRKDFDWAWQFREEVVE | not soluble
MTSSAMDNNEPKVLEMVYDATILPECSGMDPSIIDCINRHINMRIQRSYSSNIIAILDRFLMMNKDELNNTQCHIIKEFMTYEQMAIDYYGGYVNAILYQIRKRPNQHHTIDLFKRIKRTRYDTFKVNPVEFVKKVIGFVSILNKYKPIYSYVLYENVLYDELKCFIDYVETKYFQN | not soluble
MFQQLSARLQEAIGRLRGRGRITEEDLKATLREIRRALMDADVNLEVARDFVERVREEALGKQVLESLTPAEVILATVYEALKEALGGEARLPVLKDRNLWFLVGLQGSGKTTTAAKLALYYKGKGRRPLLVAADTQRPAAREQLRLLGEKVGVPVLEVMDGESPESIRRRVEEKARLEARDLILVDTAGRLQIDEPLMGELARLKEVLGPDEVLLVLDAMTGQEALSVARAFDEKVGVTGLVLTKLDGDARGGAALSARHVTGKPIYFAGVSEKPEGLEPFYPERLAGRILGMGDIESILEKVKGLEEYDKIQKKMEDVMEGKGKLTLRDVYAQIIALRKMGPLSKVLQHIPGLGIMLPTPSEDQLKIGEEKIRRWLAALNSMTYKELENPNIIDKSRMRRIAEGSGLEVEEVRELLEWYNNMNRLLKMVK | soluble
